How the values were obtained:
[1] = Kd of D4 by 3H-biotin binding and protein precipitation; conditions: 24 μM D4, increasing 3H-biotin (0-500 μM), >20 hr room temperature; ± s.e.m.
Method: After incubation at room temperature for 20 hr, the protein was precipitated by adding 50 μL to 200 μL 0.2 M ZnSO4 followed by 200 μL 0.2 M NaOH. The protein precipitate was pelleted by centrifugation at 16,500 g for 5 min. The biotin bound by D4 was calculated from the total ^3H-biotin added minus the ^3H-biotin in the supernatant. The Kd was obtained using a nonlinear regression analysis (one-site binding hyperbola) with SigmaPlot (Systat Software; Point Richmond, Calif.).

[2] = test system: biotinylated AP-neuroligin-1 on hippocampal neurons; assay: AP-neuroligin-1 clustering in hippocampal neurons labeled with streptavidin; type: cell-based, rat; conditions: two hour incubation at 37° C., Alexa Fluor 568 conjugate; ± s.e.m., n=9
Method: HeLa cells were grown in Dulbecco's Modified Eagle Medium (DMEM) with 10% Fetal Calf Serum, 50 U/mL penicillin and 50 μg/mL streptomycin. HeLa stably expressing AP-CFP-TM or Ala-CFP-TM have been previously described (Howarth, M. et al., Proc. Natl. Acad. Sci. USA 102: 7583-7588, 2005). Dissociated primary neuronal cultures were prepared from Embryonic Day 18 or 19 (E18/19) rats and transfected with Lipofectamine 2000 at DIV6 as in Levinson et al. (Levinson, J. N. et al., J. Biol. Chem. 280: 17312-17319, 2005). […]
Images of HeLa cells were collected on a Zeiss Axiovert 200M inverted epifluorescence microscope using a 40× oil-immersion lens and a MicroMAX CCD camera (Roper Scientific; Tucson, Ariz.). CFP (420DF20 excitation, 450DRLP dichroic, 475DF40 emission) and Alexa568 (560DF20 excitation, 585DRLP dichroic, 605DF30 emission) images were collected and analyzed using OpenLab software (Improvision; Lexington, Mass.). Fluorescence images were background-corrected. […] Images were scaled to 16 bits and analyzed in Northern Eclipse (Empix Imaging; Ontario, Canada) with user-written software. […] Results were then calculated in terms of clusters per micrometer of dendrite. For assessment of pre-synaptic terminals, clusters were determined as before and average grey levels of clusters were compared between transfected dendrites and untransfected dendrites within the same field of view. […]

[3] = Subunit exchange of monovalent avidin over time by SDS-PAGE; type: physicochemical
Method: (§1) Methods described in the Avidin Methods section above herein are used for the following production and testing of monovalent avidin. Tests are performed to determine whether monovalent avidin will rearrange its subunit composition over time. […] Wild-type avidin and A1D3 are heated in PBS at various temperatures and tetramer disassembly is determined by SDS-PAGE.

[4] = Thermostability assay of avidin tetramer (SDS-PAGE); type: physicochemical; conditions: 100° C., PBS
Method: 2.3 μM wild-type avidin or chimeric avidin in PBS is heated at the indicated temperature for 3 min in a PTC-200 PCR machine (MJ Research; Waltham, Mass.) and then immediately placed on ice (Bayer, E. A. et al. Electrophoresis 17: 1319-1324, 1996). Samples are mixed with 6×SDS-PAGE loading buffer and loaded onto a 16% polyacrylamide gel.
as §1

[5] = Thermostability assay of streptavidin tetramer (SDS-PAGE); type: physicochemical; conditions: 100° C., 3 min in PBS
[6] = Subunit exchange of monovalent streptavidin over time by SDS-PAGE; type: physicochemical; conditions: for A1D3 rearranged into D4: PBS
Method: Methods described in the Methods section above herein were used for the following production and testing of monovalent streptavidin. Tests were performed to determine whether monovalent streptavidin would rearrange its subunit composition over time.

[7] = 37° C. one day or room temperature one week

D4: Streptavidin tetramer with 4 dead subunits (D: N23A, S27D, S45A, SEQ ID NO:3) [Tetramer D4]
Kd [1]: 918 ± 0.0117 µM

A1D3: Monovalent streptavidin tetramer: one His6-tagged wild-type (A) subunit and three dead (D) subunits [Tetramer A1D3]
AP-neuroligin-1 clusters per micrometer of dendrite [2]: 0.087±0.021 clusters/μm | A1D3 avidin rearranged into D4 ([3]; 37° C. for one day or room temperature for one week): small percentage | Formation of A2D2 from subunit exchange [3, 7]: not detected | fraction remaining tetrameric on heating [4]: significant fraction | fraction remaining tetrameric on heating [5]: significant fraction | A1D3 rearranged into D4 ([6]; 37° C. incubation for one day): 2% | Formation of A2D2 from subunit exchange [6, 7]: not detected | A1D3 rearranged into D4 ([6]; room temperature incubation for one week): 3%

— patent US20070105162A1, “Monovalent avidin and streptavidin compositions” (Massachusetts Institute of Technology, priority 2005, published 2007)
